Experimental data taken from patent US20230018670A1.

Biological target: mB7H3 (endogenous mouse B7H3 on B16 and B78 cells) (mouse) (UniProt Q8VE98)
Assay: flow cytometry on B16 cells (no GD2, mouse B7H3), 1 ug antibody per million cells, GAH PE; anti-GD2 antibody as control

mB7H3 (endogenous mouse B7H3 on B16 and B78 cells) (mouse), sequence (Q8VE98 29-316 limits assumed): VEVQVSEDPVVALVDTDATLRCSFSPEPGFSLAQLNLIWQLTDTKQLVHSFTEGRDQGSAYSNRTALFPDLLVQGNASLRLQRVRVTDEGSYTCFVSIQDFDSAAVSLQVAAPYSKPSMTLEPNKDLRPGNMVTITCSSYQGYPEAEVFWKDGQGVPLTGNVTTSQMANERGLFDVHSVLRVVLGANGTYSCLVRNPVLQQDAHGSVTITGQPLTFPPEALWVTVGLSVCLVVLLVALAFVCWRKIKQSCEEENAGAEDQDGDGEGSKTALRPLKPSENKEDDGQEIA

MFI: 1 MFI
Substance: Invenra Dinutuximab (antibody)
